{"source": "patent US6869778", "proteins": {"B1": {"name": "t-PA/R275E, single-chain form (protein)", "chain": "SYQVICRDEKTQMIYQQHQSWLRPVLRSNRVEYCWCNSGRAQCHSVPVKSCSEPRCFNGGTCQQALYFSDFVCQCPEGFAGKCCEIDTRATCYEDQGISYRGTWSTAESGAECTNWNSSALAQKPYSGRRPDAIRLGLGNHNYCRNPDRDSKPWCYVFKAGKYSSEFCSTPACSEGNSDCYFGNGSAYRGTHSLTESGASCLPWNSMILIGKVYTAQNPSAQALGLGKHNYCRNPDGDAKPWCHVLKNRRLTWEYCDVPSCSTCGLRQYSQPQFEIKGGLFADIASHPWQAAIFAKHRRSPGERFLCGGILISSCWILSAAHCFQERFPPHHLTVILGRTYRVVPGEEEQKFEVEKYIVHKEFDDDTYDNDIALLQLKSDSSRCAQESSVVRTVCLPPADLQLPDWTECELSGYGKHEALSPFYSERLKEAHVRLYPSSRCTSQHLLNRTVTDNMLCAGDTRSGGPQANLHDACQGDSGGPLVCLNDGRMTLVGIISWGLGCGQKDVPGVYTKVTNYLDWIRDNMRP"}, "B2": {"name": "wild type human t-PA, two-chain form (protein)", "chain 1": "SYQVICRDEKTQMIYQQHQSWLRPVLRSNRVEYCWCNSGRAQCHSVPVKSCSEPRCFNGGTCQQALYFSDFVCQCPEGFAGKCCEIDTRATCYEDQGISYRGTWSTAESGAECTNWNSSALAQKPYSGRRPDAIRLGLGNHNYCRNPDRDSKPWCYVFKAGKYSSEFCSTPACSEGNSDCYFGNGSAYRGTHSLTESGASCLPWNSMILIGKVYTAQNPSAQALGLGKHNYCRNPDGDAKPWCHVLKNRRLTWEYCDVPSCSTCGLRQYSQPQFR", "chain 2": "IKGGLFADIASHPWQAAIFAKHRRSPGERFLCGGILISSCWILSAAHCFQERFPPHHLTVILGRTYRVVPGEEEQKFEVEKYIVHKEFDDDTYDNDIALLQLKSDSSRCAQESSVVRTVCLPPADLQLPDWTECELSGYGKHEALSPFYSERLKEAHVRLYPSSRCTSQHLLNRTVTDNMLCAGDTRSGGPQANLHDACQGDSGGPLVCLNDGRMTLVGIISWGLGCGQKDVPGVYTKVTNYLDWIRDNMRP"}, "B3": {"name": "t-PA/R275E,H417D, single-chain form (protein)", "chain": "B1 chain with H417D"}, "B4": {"name": "t-PA/R275E,H417E, single-chain form (protein)", "chain": "B1 chain with H417E"}, "B5": {"name": "t-PA/H417D, two-chain form (protein)", "chain 1": "B2 chain 1", "chain 2": "B2 chain 2 with H142D"}, "B6": {"name": "t-PA/H417E, two-chain form (protein)", "chain 1": "B2 chain 1", "chain 2": "B2 chain 2 with H142E"}}, "note": "Residue numbers refer to the chain shown, from its start. Numbers in names are those of the source. Where “and” joins values, the source holds several entries; their conditions need not be identical. Identical values can stand only once.", "data": [{"biological_target": "fibrinogen", "values": [{"protein": "B1", "stimulation of plasminogen activation by co-factor (indirect chromogenic assay)": "stimulated strongly"}, {"protein": "B2", "stimulation of plasminogen activation by co-factor (indirect chromogenic assay)": "strongly stimulated"}]}, {"biological_target": "T1, lys-plasminogen, P00747", "T1 chain": "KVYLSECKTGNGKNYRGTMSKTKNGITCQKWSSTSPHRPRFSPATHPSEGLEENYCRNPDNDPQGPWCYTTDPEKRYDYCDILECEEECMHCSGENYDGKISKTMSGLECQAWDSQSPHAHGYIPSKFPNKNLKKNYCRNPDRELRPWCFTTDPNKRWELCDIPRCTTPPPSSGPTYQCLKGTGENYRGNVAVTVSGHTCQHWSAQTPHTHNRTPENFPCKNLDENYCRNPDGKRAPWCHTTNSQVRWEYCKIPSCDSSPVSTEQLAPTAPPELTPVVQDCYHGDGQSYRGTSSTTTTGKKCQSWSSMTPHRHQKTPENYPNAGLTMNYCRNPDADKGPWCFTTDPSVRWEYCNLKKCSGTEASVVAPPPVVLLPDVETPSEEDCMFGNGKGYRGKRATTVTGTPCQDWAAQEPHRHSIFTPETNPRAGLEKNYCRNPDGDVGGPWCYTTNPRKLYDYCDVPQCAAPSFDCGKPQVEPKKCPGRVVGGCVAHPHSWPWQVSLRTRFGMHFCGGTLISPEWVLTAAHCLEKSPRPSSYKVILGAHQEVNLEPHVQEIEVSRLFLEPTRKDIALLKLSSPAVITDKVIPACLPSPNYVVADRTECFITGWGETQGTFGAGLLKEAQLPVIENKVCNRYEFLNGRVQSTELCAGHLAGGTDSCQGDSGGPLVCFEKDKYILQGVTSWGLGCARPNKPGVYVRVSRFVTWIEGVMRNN", "values": [{"protein": "B1", "Kcat of plasminogen activation in the absence of a cofactor": "0.014 s⁻¹ and 0.038 s⁻¹", "Kcat of plasminogen activation in the presence of fibrin": "0.16 s⁻¹ and 0.1 s⁻¹", "Kcat/Km of plasminogen activation in the absence of a cofactor": "1500 M⁻¹ s⁻¹ and 1300 M⁻¹ s⁻¹", "Kcat/Km of plasminogen activation in the presence of fibrin": "9.4e+06 M⁻¹ s⁻¹ and 5e+06 M⁻¹ s⁻¹", "Km of plasminogen activation in the presence of fibrin": "0.017 µM and 0.02 µM"}, {"protein": "B3", "Kcat of plasminogen activation in the absence of a cofactor": "0.001 s⁻¹", "Kcat of plasminogen activation in the presence of fibrin": "0.23 s⁻¹", "Kcat/Km of plasminogen activation in the absence of a cofactor": "110 M⁻¹ s⁻¹", "Kcat/Km of plasminogen activation in the presence of fibrin": "5.3e+06 M⁻¹ s⁻¹", "Km of plasminogen activation in the absence of a cofactor": "9.4 µM", "Km of plasminogen activation in the presence of fibrin": "0.043 µM", "fold reduction of activity toward plasminogen without co-factor, against single chain t-PA/R275E": "reduced by a factor of approximately 14 or 6, respectively"}, {"protein": "B4", "Kcat of plasminogen activation in the absence of a cofactor": "0.002 s⁻¹", "Kcat of plasminogen activation in the presence of fibrin": "0.17 s⁻¹", "Kcat/Km of plasminogen activation in the absence of a cofactor": "240 M⁻¹ s⁻¹", "Kcat/Km of plasminogen activation in the presence of fibrin": "6.1e+06 M⁻¹ s⁻¹", "Km of plasminogen activation in the absence of a cofactor": "8.5 µM", "Km of plasminogen activation in the presence of fibrin": "0.028 µM", "fold reduction of activity toward plasminogen without co-factor, against single chain t-PA/R275E": "reduced by a factor of approximately 14 or 6, respectively"}, {"protein": "B2", "Kcat of plasminogen activation in the absence of a cofactor": "0.093 s⁻¹ and 0.16 s⁻¹", "Kcat of plasminogen activation in the presence of fibrin": "0.11 s⁻¹ and 0.08 s⁻¹", "Kcat/Km of plasminogen activation in the absence of a cofactor": "14000 M⁻¹ s⁻¹ and 16000 M⁻¹ s⁻¹", "Kcat/Km of plasminogen activation in the presence of fibrin": "6.5e+06 M⁻¹ s⁻¹ and 4e+06 M⁻¹ s⁻¹", "Km of plasminogen activation in the absence of a cofactor": "6.7 µM and 10 µM", "Km of plasminogen activation in the presence of fibrin": "0.017 µM and 0.02 µM"}, {"protein": "B5", "Kcat of plasminogen activation in the absence of a cofactor": "0.11 s⁻¹", "Kcat of plasminogen activation in the presence of fibrin": "0.11 s⁻¹", "Kcat/Km of plasminogen activation in the absence of a cofactor": "16000 M⁻¹ s⁻¹", "Kcat/Km of plasminogen activation in the presence of fibrin": "4.6e+06 M⁻¹ s⁻¹", "Km of plasminogen activation in the absence of a cofactor": "6.8 µM", "Km of plasminogen activation in the presence of fibrin": "0.024 µM"}, {"protein": "B6", "Kcat of plasminogen activation in the absence of a cofactor": "0.099 s⁻¹", "Kcat of plasminogen activation in the presence of fibrin": "0.1 s⁻¹", "Kcat/Km of plasminogen activation in the absence of a cofactor": "11000 M⁻¹ s⁻¹", "Kcat/Km of plasminogen activation in the presence of fibrin": "4.5e+06 M⁻¹ s⁻¹", "Km of plasminogen activation in the absence of a cofactor": "8.7 µM", "Km of plasminogen activation in the presence of fibrin": "0.022 µM"}]}, {"biological_target": "soluble fibrin monomers (DESAFIB)", "values": [{"protein": "B1", "Fold stimulation of kcat/Km by fibrin": "6300 fold and 3800 fold", "fibrin selectivity factor (specific activity in the presence of fibrin over that in the presence of fibrinogen)": "1.0 for single chain t-PA/R275E", "stimulation of plasminogen activation by co-factor (indirect chromogenic assay)": "stimulated strongly"}, {"protein": "B3", "Fold stimulation of kcat/Km by fibrin": "48200 fold"}, {"protein": "B4", "Fold stimulation of kcat/Km by fibrin": "25400 fold"}, {"protein": "B2", "Fold stimulation of kcat/Km by fibrin": "460 fold and 250 fold", "fibrin selectivity factor (specific activity in the presence of fibrin over that in the presence of fibrinogen)": "1.5 for two-chain t-PA", "stimulation of plasminogen activation by co-factor (indirect chromogenic assay)": "strongly stimulated"}, {"protein": "B5", "Fold stimulation of kcat/Km by fibrin": "290 fold"}, {"protein": "B6", "Fold stimulation of kcat/Km by fibrin": "410 fold"}]}, {"biological_target": "stimulatory thirteen amino acid peptide P368", "values": [{"protein": "B1", "stimulation of plasminogen activation by co-factor (indirect chromogenic assay)": "moderately"}, {"protein": "B2", "stimulation of plasminogen activation by co-factor (indirect chromogenic assay)": "strongly stimulated"}]}]}
